Experiments:
[1] = target: T1, 人源重组C5蛋白 (Sino Biologica, Cat#13416-H18H) (human, UniProt P01031 19-1676); test: BLI (Octet), antibody on AHC sensor, C5 0.4688-30 nM; run no. 5
T1 construct: also called 人源C5蛋白; 全长C5

[2] = target: T1, 人源重组C5蛋白 (Sino Biologica, …); test: BLI (Octet), antibody on AHC sensor, C5 0.4688-30 nM; run no. 4
[3] = target: T1, 人源重组C5蛋白 (Sino Biologica, …); test: BLI (Octet), antibody on AHC sensor, C5 0.4688-30 nM; run no. 3
[4] = target: T1, 人源重组C5蛋白 (Sino Biologica, …); test: BLI (Octet), antibody on AHC sensor, C5 0.4688-30 nM; run no. 2
[5] = target: T1, 人源重组C5蛋白 (Sino Biologica, …); test: BLI (Octet), antibody on AHC sensor, C5 0.4688-30 nM; run no. 1

T1 sequence (P01031 19-1676 limits assumed): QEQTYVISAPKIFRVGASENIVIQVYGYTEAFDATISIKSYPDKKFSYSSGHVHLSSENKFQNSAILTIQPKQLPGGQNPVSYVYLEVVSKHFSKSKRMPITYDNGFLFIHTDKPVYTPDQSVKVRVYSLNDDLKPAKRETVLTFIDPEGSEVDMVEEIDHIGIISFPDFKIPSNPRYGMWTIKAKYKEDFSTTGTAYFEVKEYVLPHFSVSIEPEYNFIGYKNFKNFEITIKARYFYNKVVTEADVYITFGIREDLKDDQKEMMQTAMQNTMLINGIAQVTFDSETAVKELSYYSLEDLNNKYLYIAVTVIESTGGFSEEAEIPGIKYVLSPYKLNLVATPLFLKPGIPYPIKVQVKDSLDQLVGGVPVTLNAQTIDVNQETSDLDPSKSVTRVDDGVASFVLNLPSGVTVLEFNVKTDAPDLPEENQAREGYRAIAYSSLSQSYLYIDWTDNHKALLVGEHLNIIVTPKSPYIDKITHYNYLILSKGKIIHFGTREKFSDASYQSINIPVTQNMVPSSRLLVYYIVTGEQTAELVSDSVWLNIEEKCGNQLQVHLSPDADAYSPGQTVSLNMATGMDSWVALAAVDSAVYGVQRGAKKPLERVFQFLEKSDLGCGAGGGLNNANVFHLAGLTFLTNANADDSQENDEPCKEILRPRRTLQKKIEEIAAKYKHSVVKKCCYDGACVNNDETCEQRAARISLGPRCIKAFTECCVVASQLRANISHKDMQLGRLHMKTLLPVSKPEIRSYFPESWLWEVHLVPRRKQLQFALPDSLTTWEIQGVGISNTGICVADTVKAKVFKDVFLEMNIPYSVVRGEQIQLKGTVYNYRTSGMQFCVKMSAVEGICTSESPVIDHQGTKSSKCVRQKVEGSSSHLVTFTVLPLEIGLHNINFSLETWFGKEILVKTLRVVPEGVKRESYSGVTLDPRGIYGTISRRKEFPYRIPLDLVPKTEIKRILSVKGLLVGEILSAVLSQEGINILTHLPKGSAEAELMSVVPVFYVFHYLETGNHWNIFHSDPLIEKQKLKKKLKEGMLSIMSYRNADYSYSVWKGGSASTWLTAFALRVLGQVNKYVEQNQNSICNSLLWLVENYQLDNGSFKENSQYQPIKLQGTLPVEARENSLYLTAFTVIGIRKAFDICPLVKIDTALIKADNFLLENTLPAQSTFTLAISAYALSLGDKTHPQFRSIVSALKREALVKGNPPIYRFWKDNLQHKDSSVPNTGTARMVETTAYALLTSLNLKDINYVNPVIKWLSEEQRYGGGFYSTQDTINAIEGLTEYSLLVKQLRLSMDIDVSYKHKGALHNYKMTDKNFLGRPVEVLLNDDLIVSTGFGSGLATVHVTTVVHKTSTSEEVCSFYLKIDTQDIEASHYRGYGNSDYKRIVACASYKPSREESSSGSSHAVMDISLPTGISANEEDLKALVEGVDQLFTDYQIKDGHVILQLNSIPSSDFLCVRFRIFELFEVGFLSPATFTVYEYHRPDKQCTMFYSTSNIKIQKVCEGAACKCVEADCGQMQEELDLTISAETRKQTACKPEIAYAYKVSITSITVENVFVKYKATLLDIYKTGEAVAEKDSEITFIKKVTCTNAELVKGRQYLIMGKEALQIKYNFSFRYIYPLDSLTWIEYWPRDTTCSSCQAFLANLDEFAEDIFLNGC

Kd [1]: 0.72 nM
koff [1]: 0.000309 s⁻¹
kon [1]: 429000 M⁻¹ s⁻¹
Kd [2]: 0.722 nM
koff [2]: 0.000307 s⁻¹
kon [2]: 425000 M⁻¹ s⁻¹
Kd [3]: 0.616 nM
koff [3]: 0.000279 s⁻¹
kon [3]: 452000 M⁻¹ s⁻¹
Kd [4]: 0.614 nM
koff [4]: 0.0003 s⁻¹
kon [4]: 488000 M⁻¹ s⁻¹
Kd [5]: 0.366 nM
koff [5]: 0.000151 s⁻¹
kon [5]: 413000 M⁻¹ s⁻¹
B1: CR3#75/IgG4 (antibody, V domains shown)
VH: EVQLVQSGAEVKKPGATVKISCKVSGYTFTDYYTHWVQQAPGKGLEWMGLVDPEGGETIYAEKFQGRVTITADASTDTAYMELSSLRSEDTAVYYCATGSFLAAPDYWGQGTTVTVSS
VL: not shown
notes: also called 抗C5抗体CR3#75; S125(38#)-3

From patent CN114149501A (TENCEL BIOMEDICINE CO LTD, dated 2022)
